# Laboratory results: patent publication US20250122303A1, “TREATMENT AND PREVENTION OF CANCER USING HER3 ANTIGEN-BINDING MOLECULES” (Hummingbird Bioscience Pte. Ltd., priority 2021, published 2025)
# Entries after “also recorded” stand apart in the source; their conditions may differ.
# Legend:
# N87 cells = assay: CCK-8 proliferation assay, N87; format: cell-based, human; conditions: 5 days
# Description: Briefly, N87 and FaDu cells were treated with serially diluted concentrations of anti-HER3 antibody 10D1, starting from 100 μg/ml with a 9-point half log dilution. Cell proliferation was measuring using the CCK-8 proliferation assay (Dojindo, Japan) after a period of 5 days, in accordance with the manufacturer's instructions. Briefly 1× CCK-8 solution was added to each well followed by incubation for 2 h at 37° C. The OD was then measured at 450 nm.
# [1] = format: physicochemical; conditions: 0.2 mg/mL in PBS, three samples
# Description: 3.4 Analysis of thermostability by Differential Scanning Fluorimetry Briefly, triplicate reaction mixes of antibodies at 0.2 mg/mL and SYPRO Orange dye (ThermoFisher) were prepared in 25 μL of PBS, transferred to wells of MicroAmp Optical 96-Well Reaction Plates (ThermoFisher), and sealed with MicroAmp Optical Adhesive Film (ThermoFisher). Melting curves were run in a 7500 fast Real-Time PCR system (Applied Biosystems) selecting TAMRA as reporter and ROX as passive reference. The thermal profile included an initial step of 2 min at 25° C. and a final step of 2 min at 99° C., with a ramp rate of 1.2%. The first derivative of the raw data was plotted as a function of temperature to obtain the derivative melting curves. Melting temperatures (Tm) of the antibodies were extracted from the peaks of the derivative curves.
# The thermostability of the variant was also analysed by Differential Scanning Fluorimetry analysis as described in Example 3.4.
# mouse HER3 = molecular target: T1, mouse HER3 (Mus musculus, UniProt Q61526); assay: ELISA cross-reactivity, mouse HER3; format: binding
# T1 construct: purchased Sino Biological Inc., China
# Description: (§1) ELISAs were used to determine the binding specificity of the antibodies. The antibodies were analysed for binding to human HER3 polypeptide, as well as respective mouse, rat and monkey homologues of HER3 (Sino Biological Inc., China). The antibodies were also analysed for their ability to bind to human EGFR and human HER2 (Sino Biological Inc., China).
# ELISAs were carried out according to standard protocols. Briefly, 96-well plates (Nunc, Denmark) were coated with 0.1 μg/ml of target polypeptide in phosphate-buffered saline (PBS) for 16 h at 4° C. After blocking for 1 h with 1% BSA in Tris buffer saline (TBS) at room temperature, the anti-HER3 antibody was serially diluted with the highest concentration being 10 μg/ml, and added to the plate. Post 1 h incubation at room temperature, plates were washed three times with TBS containing 0.05% Tween 20 (TBS-T) and were then incubated with a HRP-conjugated anti-His antibody (Life Technologies, Inc., USA) for 1 h at room temperature. After washing, plates were developed with colorimetric detection substrate 3,3′,5,5′-tetramethylbenzidine (Turbo-TMB; Pierce, USA) for 10 min. The reaction was stopped with 2M H2SO4, and OD was measured at 450 nm. […]
# His-tagged human HER3 = His-tagged human HER3 (Homo sapiens, UniProt P21860); assay: BLI competition between anti-HER3 antibodies for binding to HER3
# Description: Bio-Layer Interferometry (BLI) experiments were performed using the Octet QK384 system (ForteBio). anti-Penta-HIS (HIS1K) coated biosensor tips (ForteBio, USA) were used to capture His-tagged human HER3 (75 nM; 300 s). Binding by saturating antibody ([…]; 600 s) was detected, followed by a dissociation step (120s), followed by detection of binding with competing antibody (300 nM; 300 s), followed by a dissociation step (120s).
# BLI experiments were performed as described in Example 3.5 with one alteration: 400 nM of competing antibodies were used. The variable regions of M-05-74 and M-08-11 antibodies were cloned in the PDZ vector having human IgG1 and IgKappa Fc backbone.
# [2] = system: ACHN cell-line derived mouse model of renal cell carcinoma; assay: ACHN cell-line derived xenograft model; format: in vivo; conditions: IP biweekly 500 μg, 7 doses
# Description: (§2) Tumor volumes were measured 3 times a week using a digital caliper and calculated using the formula [L ×W2/2]. Study End point was considered to have been reaches once the tumors of the control arm measured >1.5 cm in length.
# The model was established by subcutaneous injection of 1×10^6 ACHN cells into the right flanks of female NCr nude mice (n=6 mice per treatment group).
# 10D1 was administered IP, biweekly at 500 μg per dose (for a total of 7 doses); a control treatment group received an equal volume of PBS.
# human HER2 = molecular target: T2, human HER2 (Homo sapiens, UniProt P04626); assay: ELISA specificity, human HER2; format: binding; conditions: antibody up to 10 μg/ml
# T2 construct: purchased Sino Biological Inc., China
# Description: as §1
# ELISAs were carried out according to standard protocols. Briefly, 96-well plates (Nunc, Denmark) were coated with 0.1 μg/ml of target polypeptide in phosphate-buffered saline (PBS) for 16 h at 4° C. After blocking for 1 h with 1% BSA in Tris buffer saline (TBS) at room temperature, the anti-HER3 antibody was serially diluted with the highest concentration being 10 μg/ml, and added to the plate. Post 1 h incubation at room temperature, plates were washed three times with TBS containing 0.05% Tween 20 (TBS-T) and were then incubated with a HRP-conjugated anti-His antibody (Life Technologies, Inc., USA) for 1 h at room temperature. […] The reaction was stopped with 2M H2SO4, and OD was measured at 450 nm.
# The antibodies were analysed for their ability to bind to human HER3 polypeptide as well as human HER1 (EGFR) and human HER2 (Sino Biological Inc., China). […]
# ELISAs were carried out according to standard protocols. […] The reaction was stopped with 2M H2SO4, and OD was measured at 450 nm.
# [3] = system: HCC-95 cell-line derived mouse model of squamous cell lung carcinoma; assay: HCC-95 cell-line derived xenograft model; format: in vivo; conditions: HCC-95, IP biweekly 500 μg, 4 doses
# Description: as §2
# The model was established by subcutaneous injection of 1×10^6 HCC-95 cells into the right flanks of female NCr nude mice (n=6 mice per treatment group).
# 10D1 was administered IP, biweekly at 500 μg per dose (for a total of 4 doses); a control treatment group received an equal volume of PBS.
# T1 sequence (Q61526 20-1339): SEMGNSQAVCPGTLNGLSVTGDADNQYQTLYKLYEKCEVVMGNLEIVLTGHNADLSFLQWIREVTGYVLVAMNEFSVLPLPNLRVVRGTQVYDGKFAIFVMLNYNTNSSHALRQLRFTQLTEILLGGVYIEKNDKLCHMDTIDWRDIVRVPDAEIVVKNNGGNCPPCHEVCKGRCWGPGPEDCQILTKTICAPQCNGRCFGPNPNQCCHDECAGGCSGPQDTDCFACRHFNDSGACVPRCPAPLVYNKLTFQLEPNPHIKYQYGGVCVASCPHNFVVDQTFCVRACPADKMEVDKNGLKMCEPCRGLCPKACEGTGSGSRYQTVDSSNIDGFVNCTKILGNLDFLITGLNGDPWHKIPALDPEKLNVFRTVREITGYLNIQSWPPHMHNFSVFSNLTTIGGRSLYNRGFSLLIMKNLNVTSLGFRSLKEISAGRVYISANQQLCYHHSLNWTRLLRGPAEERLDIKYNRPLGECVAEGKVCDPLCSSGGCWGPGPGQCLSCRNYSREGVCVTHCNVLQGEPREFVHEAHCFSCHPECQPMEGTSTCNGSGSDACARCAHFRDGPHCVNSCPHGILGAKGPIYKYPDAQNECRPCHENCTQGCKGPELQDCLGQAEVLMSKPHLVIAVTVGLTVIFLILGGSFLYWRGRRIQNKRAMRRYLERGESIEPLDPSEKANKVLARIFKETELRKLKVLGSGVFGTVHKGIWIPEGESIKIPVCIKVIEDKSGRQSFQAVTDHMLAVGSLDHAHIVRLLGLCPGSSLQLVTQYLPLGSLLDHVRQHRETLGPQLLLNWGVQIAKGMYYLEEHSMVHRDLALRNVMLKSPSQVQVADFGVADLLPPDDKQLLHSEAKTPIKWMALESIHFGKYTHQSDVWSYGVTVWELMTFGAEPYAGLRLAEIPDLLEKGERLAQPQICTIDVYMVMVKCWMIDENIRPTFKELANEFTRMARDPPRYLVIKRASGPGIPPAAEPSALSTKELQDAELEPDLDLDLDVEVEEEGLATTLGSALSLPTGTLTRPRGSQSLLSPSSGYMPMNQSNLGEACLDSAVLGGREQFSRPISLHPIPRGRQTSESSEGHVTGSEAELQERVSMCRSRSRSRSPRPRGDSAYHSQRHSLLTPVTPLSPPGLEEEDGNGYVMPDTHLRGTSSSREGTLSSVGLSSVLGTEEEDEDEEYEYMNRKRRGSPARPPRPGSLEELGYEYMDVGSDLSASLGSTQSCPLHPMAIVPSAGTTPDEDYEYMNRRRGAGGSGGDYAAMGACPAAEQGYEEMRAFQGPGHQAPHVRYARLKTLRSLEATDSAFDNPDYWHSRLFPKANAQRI
molecule,measurement,setting,value
"10D1: anti-HER3 antibody clone, VH SEQ ID NO:24, VL SEQ ID NO:74; [1] of Example 2.2 (antibody, V domains shown) VH: DVQLQESGPDLVKPSQSLSLTCTVTGYSITSGYSWHWIRQFPGNKLEWMGSIHYSGGTNYNPSLKSRISITRDTSKNQFFLQLNSVTTEDTATYFCARMTTAPRYPFDYWGQGTTLTVSS VL: DIVMTQSQKFMSTSVGDRVSVTCKASQIVGSNVAWYQQKPGQSPKPLIYSASYRYSGVPDRFTASGSGTDFTLTITNVQSEDLAEYFCQQYSSHPLTFGAGTKLELK",cell proliferation,N87 cells,dose-dependent inhibition of cell proliferation
same,Tm,[1],70.3 °C
same,binding / cross-reactivity with mouse HER3,mouse HER3,substantial cross-reactivity
same,competition with MM-121 and/or LJM-716 for binding to HER3,His-tagged human HER3,not to compete; also recorded: distinct and topologically distant epitope
same,inhibition of tumor growth,[2],~61%
same,binding to human HER2,human HER2,not to bind
same,inhibition of tumor growth,[3],~90%
